Measured values published in patent US20240408220A1, “PEPTIDE DENDRONS AND METHODS OF USE THEREOF” (ASTRAZENECA AB, priority 2021, published 2024).
Where no end group is shown, it is not given here. [ ]: non-standard residue; d: D form. Cit = NC(=O)NCCC[C@H](N)C(=O)O

Assays:
[1] = Anionic stability assay (dextran sulfate dissociation of NPs); type: physicochemical
Description: Dextran sulfate (DS) solutions were prepared in 20 mM HEPES and added to NP solutions (prepared as in Example 4) so the final DS concentration was between […] and DNA concentration was 10 μg/mL. After a 15-minute decomplexation period, 15 μl of each formulation was added to a 2% E-gel with ethidium bromide and run for 10 minutes. pDNA release was calculated using ImageJ (NIH, Bethesda, Maryland) and the results shown in FIG. 2A where the percent of intact nanoparticles Is plotted as a function of DS concentration.

[2] = target: Cathepsin-B (Homo sapiens, UniProt P07858); experiment: Enzymatic DNA release from NPs by cathepsin-B; type: biochemical; conditions: relative to non-modified PD3 and all PD2 formulations
Description: NPs prepared as in Example 4 but in 8 mM L-Cysteine HCl buffer pH 6 at a final DNA concentration of 0.1 μg/μl. Cathepsin-B stock solution (60 units/mL) was subsequently added. Cat-B NP solutions were incubated at 37° C. for up to 4 hours. Aliquots were removed at the appropriate time points and analysed via agarose gel electrophoresis to visualize released DNA. DNA dilutions were prepared at different concentrations as a control and likewise added to the same agarose gel for subsequent quantification using bio-rad intensity software analysis and the results shown in FIG. 2B.

Row | Substance | dextran sulphate concentration above which DNA was readily released [1] | DNA release in response to cathepsin-B activity [2]
1 | ({LEU}{ARG}8{LYS}{LEU}{ARG}4{LYS}{LEU}{ARG})2{LYS}{GLY}{VAL}{CIT}{GLY}{GLY}{SER}{CYS} (chain 1 LRKLRKLRKGV[Cit]GGSC-NH2; chain 2 LRKLRKLR; chain 3 LRKLR; also: branched dendron: side chains of K3, K6, K9 (chain 1) and K3, K6 (chain 2) amide-linked to other sequences, chain 2 C-terminus linked to another sequence) [PD1, comparison peptide dendron without modified lysines] | exceeding 50 μg/mL | –
2 | ({LYS(M)}{LEU}{ARG})8({LYS}{LYS(M)}{LEU}{ARG})4({LYS}{LYS(M)}{LEU}{ARG})2{LYS}{GLY}{VAL}{CIT}{GLY}{GLY}{SER}{CYS} (chain 1 K(2‑morpholinoacetyl)LRKK(2‑morpholinoacetyl)LRKK(2‑morpholinoacetyl)LRKGV[Cit]GGSC-NH2; chain 2 K(2‑morpholinoacetyl)LRKK(2‑morpholinoacetyl)LRKK(2‑morpholinoacetyl)LR; chain 3 K(2‑morpholinoacetyl)LRKK(2‑morpholinoacetyl)LR; also: branched dendron: side chains of K4, K8, K12 (chain 1) and K4, K8 (chain 2) amide-linked to other sequences) [PD3(M)] | – | readily released DNA in response to cathepsin-B activity
